Source: PMC1420652, “Purified Wnt5a Protein Activates or Inhibits β-Catenin–TCF Signaling Depending on Receptor Context” (PLoS Biology, 2006)

T1: purified Wnt5a protein (mouse) (mouse, UniProt P22725 62-380)
T1 construct: Wnt5a, mouse; The protein needs detergent to stay in solution; also called mWnt5a
T1 sequence (looked up): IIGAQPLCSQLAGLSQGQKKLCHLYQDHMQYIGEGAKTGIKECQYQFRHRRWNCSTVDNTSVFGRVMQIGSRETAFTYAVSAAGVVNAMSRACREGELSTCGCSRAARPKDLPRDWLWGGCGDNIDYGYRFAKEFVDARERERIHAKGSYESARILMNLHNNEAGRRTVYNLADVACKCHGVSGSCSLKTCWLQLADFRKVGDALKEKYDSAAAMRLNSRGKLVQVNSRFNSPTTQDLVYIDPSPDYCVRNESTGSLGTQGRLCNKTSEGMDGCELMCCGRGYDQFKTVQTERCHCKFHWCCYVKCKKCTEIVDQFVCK


Target: T1, purified Wnt5a protein (mouse)
Assay: pull-down; purified CRD-IgG proteins bound to protein A-Sepharose beads (4 h, 4 °C), incubated overnight at 4 °C with purified Wnt5a protein, washed 4 times with TNT buffer (50 mM Tris-HCl, 150 mM NaCl, 1% Triton X-100), Western blot
Conditions: both partners purified

binding result | Binder
binds | mRor2 NT CRD-IgG (Fc fusion, signal peptide in the construct; source: 293 cells stably secreting the protein, purified from serum-free conditioned media (protein A column); not shown: immunoglobulin heavy chain domain (IgG), C-terminal, kept) not shown
binds | mRor2 CRD-IgG (Fc fusion, source: 293 cells stably secreting the protein, purified from serum-free conditioned media (protein A column); not shown: immunoglobulin heavy chain domain (IgG), C-terminal, kept) not shown
